According to the supplement of paper PMC12042874:
± gives the uncertainty stated by the source.

Experiment: amyloid nucleation score (Sup35N fusion, yeast selection) (log enrichment); library NNK2; higher = more nucleation; inactive = no reads after selection
Method in brief: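 Sup35N fusions to peptides of 20 random codons were expressed in psi-negative yeast, induced 24 hours with 100 μM copper sulfate, and grown 7 days at 30°C on medium lacking adenine and uracil. Input and output plasmid inserts were sequenced by Illumina. The nucleation score is the DiMSum log enrichment of output over input reads, centred on the mode score of non-aggregating sequences. Sequences with under 100 input reads were excluded.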

| Substance | amyloid nucleation score |
| --- | --- |
| GMVCVP | 0.876 ± 0.25 |
| GMWFPLWFVDSSNSMSLLCV | -1.59 ± 0.76 |
| GMWRIPYGWGPCYHSCVNQG | 4.958 ± 0.047 |
| GMYGLCF | -0.524 ± 0.64 |
| GNFVHTYNIK | 0.526 ± 0.66 |
| GNFVRLLV | -0.031 ± 0.37 |
| GNGMNWPC | 2.16 ± 0.13 |
| GNMYLSEVNVTC | -0.78 ± 1.1 |
| GNNGRFSWVY | 0.556 ± 0.37 |
| GNNIVDPMLYLEGFKFSPIP | 0.082 ± 0.65 |
| GNRYSLCEAYATYLFSLDWY | inactive |
| GNTHHRDGILESQPFFVTEA | 0.465 ± 0.29 |
| GNVECS | -0.463 ± 0.45 |
| GNVGL | 1.86 ± 0.078 |
| GNVSYHSCVW | 0.449 ± 0.36 |
| GNVYHLPDCLNLTWVLKIKN | -0.944 ± 0.39 |
| GPCDQSWAT | 1.06 ± 0.19 |
| GPKPGDVSYVYKSCRTHNSP | 0.53 ± 0.29 |
| GPLSNLYTKYDANENDGFIL | -0.321 ± 0.41 |
| GQSCHYCRMTLNIDFTDWVL | -0.228 ± 0.39 |
| GQVLLFCMRTTYTMDEEFNS | 0.082 ± 1 |
| GRCSSSLRICRSNWGAY | 0.45 ± 0.22 |
| GRGAAILYMECYAVAEVCTF | 0.108 ± 0.26 |
| GRGYAAVLNWRLFDKDRGRI | 0.035 ± 0.28 |
| GRKCVTYSCPF | 0.185 ± 0.39 |

| Substance | amyloid nucleation score |
| --- | --- |
| GRKTDFHFDVRFAWGDNGFS | inactive |
| GRLLQGWLIAEHVITVHFPM | inactive |
| GRNLMLSGVCGYKDVFLQAR | 0.359 ± 0.34 |
| GRSFILTRLRFIFPVYTVC | inactive |
| GRSGRNNVKAW | inactive |
| GRTYGFSSRVVMRRGSCDFG | 0.913 ± 0.52 |
| GRWKDRFCTVGMLYSRG | -0.316 ± 0.45 |
| GSAMF | inactive |
| GSCRDLDLLLERHWRVVSNL | 0.903 ± 0.57 |
| GSFSEYVLWT | 0.863 ± 0.41 |
| GSGFLFFSVF | 0.353 ± 0.25 |
| GSKDFLV | -0.047 ± 1.1 |
| GSLNTLSIFDDE | -0.684 ± 0.64 |
| GSNETPHLDALSPSALRMGH | 0.103 ± 0.63 |
| GSNHRSVVFIFLMLMGFMES | -0.205 ± 0.76 |
| GSNTSDHDNLD | -0.238 ± 0.5 |
| GSPGIETGIAAEEWNGGW | 0.865 ± 0.5 |
| GSPSRRGTVYRVWRVRWCNG | 0.307 ± 0.64 |
| GSQVCILLAKGLWMVVFRIE | -0.795 ± 0.55 |
| GSSNASVATGFVHIKEVKGG | 0.461 ± 0.8 |
| GSVFLRGTYWVLKDVCGWKE | 0.391 ± 0.56 |
| GSVTVCIMSRR | -0.729 ± 0.64 |
| GSYCCLVKFMKFFSSLGHQF | -1.29 ± 1 |
| GSYFGHNIHLGAVWPIIGYP | 0.117 ± 0.3 |
| GTAPSDQRTSSCR | 0.989 ± 0.23 |

| Substance | amyloid nucleation score |
| --- | --- |
| GTLMTCVGG | inactive |
| GTLWRFKESTMGLTGITAGT | 0.987 ± 0.4 |
| GTRNVLIHAK | -1.26 ± 1.1 |
| GTRYILVKGTMGYDLCYFLG | 2.69 ± 0.13 |
| GTTDTCSAV | 3.2 ± 0.093 |
| GTTWLTVLALVALSEISCRM | 0.384 ± 0.28 |
| GTVGGVGMFVLLVTRSKVFV | 1.3 ± 0.29 |
| GTVGVGMS | 1.11 ± 0.66 |
| GVCLSGACAGISGGADYSGR | 0.332 ± 0.22 |
| GVDDARTTKAGNWYSVRKGQ | 1.64 ± 0.41 |
| GVDKWLDHVCFVASYLSVKV | 1.22 ± 0.51 |
| GVFALSPRKHLRCDVVAWGV | 0.884 ± 0.55 |
| GVIWVCIRCDHGGTAMRLLW | 1.25 ± 0.45 |
| GVIWWPVTLCFWLCAKYIGL | -0.552 ± 1.1 |
| GVKST | 0.422 ± 0.74 |
| GVLDRFPDESNILGVSFSCL | -0.575 ± 0.26 |
| GVLYLFTVTVMDKKFTM | 3.5 ± 0.077 |
| GVMSPHVTTFNILCVNNVLC | 8.72 ± 0.07 |
| GVNILTLWHWIYFNTTVQNN | -1.19 ± 0.38 |
| GVPRMTSVDSYRLLLFSASR | 0.19 ± 0.25 |
| GVRMQLFGTLMSSAHQVRVG | 0.69 ± 0.17 |
| GVSLFYNWPPSAFKVRYE | -0.611 ± 1 |
| GVSVSVYHGWLVLDRMFHNS | 4.25 ± 0.12 |
| GVWYFANFFVVMRAVGCDVG | 0.484 ± 0.36 |
| GVYKVGMVPWFIQFSDVGGR | 5.73 ± 0.068 |

| Substance | amyloid nucleation score |
| --- | --- |
| GVYLGSPSYVDLSVALFSIV | 0.073 ± 0.29 |
| GWCSYTP | 0.832 ± 0.67 |
| GWIVSLFVV | 0.769 ± 0.46 |
| GWVLTSCGANGWRK | -0.371 ± 0.63 |
| GYDGRFIASRSVYFKARIGG | -0.056 ± 0.29 |
| GYIYVNSGYRFTKLCMVFC | 0.058 ± 0.79 |
| GYLFGSALKSDIQYHTESMF | inactive |
| GYLLGSDSGDGGPFVIERIK | 0.687 ± 0.38 |
| GYLSDMINFVSYCGRLSWSV | inactive |
| GYMSYT | -0.863 ± 0.32 |
| GYNQLLTQGKPGYCFRISRV | -1.29 ± 0.78 |
| GYRNPLLLILLDRVKFSCSR | -1.19 ± 1 |
| GYSAYESANWRLA | 1.19 ± 0.44 |
| GYSILKC | inactive |
| GYTIDWMGVLQSVVLCT | 0.524 ± 0.6 |
| HADNARRYQTTLMVGLRVVG | 0.409 ± 0.49 |
| HAFLG | 0.53 ± 0.5 |
| HAMLRTDILICCITH | 9.805 ± 0.065 |
| HCCKSVRLESIRMRCGACYL | 0.007 ± 0.56 |
| HCMYDWMNRSMGLVFDCLFL | -1.04 ± 1 |
| HCPVSVVTRHGLTVNDVRHY | -0.062 ± 0.46 |
| HCRSIVWSRYFLMNPLN | -0.029 ± 0.61 |
| HCVLRSQT | 2.38 ± 0.12 |
| HCYQTDRSHIICHELLHCFV | -0.74 ± 0.49 |
| HEMRDGNSRLMFYWGVSCNM | 0.062 ± 0.45 |

| Substance | amyloid nucleation score |
| --- | --- |
| HERLKLAGSQSWVGKLVRQG | 0.917 ± 0.29 |
| HESKYNVQVFN | -0.276 ± 0.76 |
| HFIIYYDSYNTMVIGEFAVQ | inactive |
| HFKSDSSSSEMTRLVEPGGV | -0.125 ± 0.63 |
| HFMRLYSKVLILLAEKRTAP | 0.083 ± 0.76 |
| HFNSLVSGQYMWSSGKSLVP | 4.01 ± 0.061 |
| HFNVPCNCSNCSYGTILSIT | -0.305 ± 0.8 |
| HFRSLALISLAEKFITRIEK | -0.13 ± 0.22 |
| HFSDVSSEVGVIHCSMLGSN | -0.107 ± 0.49 |
| HGGGVLHIFLNIAPLVS | 1.52 ± 0.28 |
| HGLVGESVRSYQTQRQVTMA | 0.544 ± 0.4 |
| HGYRLSHSQPKSTSSLV | -0.083 ± 0.63 |
| HGYSWCCFHVGS | 8.926 ± 0.054 |
| HICPFGCGYYLGEDKDAWSG | -0.749 ± 0.56 |
| HIIPEYRVFLLLFHDDGAGF | inactive |
| HIRGVIVGRAPDRCI | inactive |
| HIRLRY | -0.101 ± 0.8 |
| HISVISTNEFTRIRASAAHA | 1.38 ± 0.67 |
| HIVRNYFTLTSCAHTIHFAD | -0.861 ± 1 |
| HKCTSAV | 0.229 ± 0.61 |
| HKIPLFYCSYTELGSSVERR | 1.38 ± 0.15 |
| HKLTRRKWNCLRNWKLNLHQ | -0.953 ± 0.54 |
| HKMADSTNDSNRLEFDMFNE | -0.881 ± 0.78 |
| HKQRSSASKSV | -0.321 ± 0.39 |
| HKWEAKMGPISVLFRCFGLD | 1.09 ± 0.14 |

| Substance | amyloid nucleation score |
| --- | --- |
| HLEPRIPLWMPVFGVSKVRS | 2.7 ± 0.12 |
| HLFCTMHSQTLEDYIKSLVC | -0.087 ± 1 |
| HLFNGSGGLFSLTRSFMKS | -0.228 ± 1.1 |
| HLGKASYREFSFFKGLGY | inactive |
| HLHGCIAMCASSSLIAGCTE | -0.603 ± 0.78 |
| HLLYPSSMVDRALHGLDTRT | 5.358 ± 0.051 |
| HLMLFDMTASLLHSHNVSRP | 5.63 ± 0.058 |
| HLNFRSGILAISFIFDLSNH | inactive |
| HLSYILGVGMFNVHHDNGFF | 2.5 ± 0.2 |
| HLVSSRGRMWPPFAPVGKQD | 0.492 ± 0.64 |
| HMEAFWCWFYGNVAFNRFCV | -0.305 ± 1 |
| HNFVFLGKFAYTWKWMKMLS | inactive |
| HNKVLGSSHHKLRQIPTCMC | 0.484 ± 0.8 |
| HNNFYPA | -0.552 ± 0.35 |
| HPDGYVHRVGSLN | -0.235 ± 1.1 |
| HPFMFKVCSTYFLNYLASCQ | 6.78 ± 0.074 |
| HPKAYARVTTK | -0.068 ± 0.36 |
| HPTSYVPSYLSFASKWLRVA | 0.571 ± 0.3 |
| HRHFCSLDGA | 0.076 ± 0.29 |
| HRLLVPDHTMYVSLKRKGLR | 0.092 ± 1.1 |
| HRPNCFRWPGLRVLFWYRK | -0.326 ± 0.45 |
| HSALWRLWEPAQP | 0.552 ± 0.64 |
| HSLKNYSGYLLLRTNRCI | 0.135 ± 0.65 |
| HSSSDVCT | 5.295 ± 0.049 |
| HSYFRFTPSFLAARSKYLRH | -0.498 ± 1.1 |

| Substance | amyloid nucleation score |
| --- | --- |
| HSYLKLVGLCKNSKRFNHNF | inactive |
| HTHGGFSHRYGSRWGQYLSW | 5.53 ± 0.063 |
| HTTGFPFRGLGDIDSLAEQF | -0.217 ± 0.79 |
| HTYVRVYLRGELCHPNCMNA | 6.348 ± 0.032 |
| HVAQTS | 1.04 ± 0.4 |
| HVAWGHFLLIHIFHVNYGYL | -0.627 ± 1.1 |
| HVLNWTYSTRIDAGGKSIRM | -0.631 ± 0.76 |
| HVLYDCMGVIIKSCHYLDLC | -0.508 ± 0.37 |
| HVMNGCGLYGQGSSRYYQTV | 0.957 ± 0.26 |
| HVNRGYSLVTPRMEVDWQLS | 1.42 ± 0.15 |
| HVVGVNLYRTLGRVFHLWDS | -0.084 ± 0.76 |
| HVWLIGFNLFLYFITLVVWV | -0.459 ± 1.1 |
| HYGTTFVISL | 3.85 ± 0.1 |
| HYGVNESLIKRYNWLRGVIW | 0.227 ± 1.1 |
| HYHTSISYR | 4.77 ± 0.1 |
| HYKTMFRFVCHFCENGGDGL | 10.18 ± 0.06 |
| HYMSAHGRRRLKPQVFYT | inactive |
| HYSRD | -0.593 ± 1.1 |
| IACIEHWALGWLLCVSGVRV | 0.534 ± 0.5 |
| IAFKLRSTLSQPRNTCVLWH | 0.276 ± 1 |
| IAGYGVHTLVQCVV | 0.082 ± 1 |
